Patent US20230395193A1 (priority 2020, published 2023)

Target: T1, Orf8-IL17RA interaction (Homo sapiens, UniProt Q96F46)
T1 construct: co-immunoprecipitation of endogenous IL17RA with Strep-tagged Orf8; host or cells: HEK293T
T1 sequence (Q96F46 33-866): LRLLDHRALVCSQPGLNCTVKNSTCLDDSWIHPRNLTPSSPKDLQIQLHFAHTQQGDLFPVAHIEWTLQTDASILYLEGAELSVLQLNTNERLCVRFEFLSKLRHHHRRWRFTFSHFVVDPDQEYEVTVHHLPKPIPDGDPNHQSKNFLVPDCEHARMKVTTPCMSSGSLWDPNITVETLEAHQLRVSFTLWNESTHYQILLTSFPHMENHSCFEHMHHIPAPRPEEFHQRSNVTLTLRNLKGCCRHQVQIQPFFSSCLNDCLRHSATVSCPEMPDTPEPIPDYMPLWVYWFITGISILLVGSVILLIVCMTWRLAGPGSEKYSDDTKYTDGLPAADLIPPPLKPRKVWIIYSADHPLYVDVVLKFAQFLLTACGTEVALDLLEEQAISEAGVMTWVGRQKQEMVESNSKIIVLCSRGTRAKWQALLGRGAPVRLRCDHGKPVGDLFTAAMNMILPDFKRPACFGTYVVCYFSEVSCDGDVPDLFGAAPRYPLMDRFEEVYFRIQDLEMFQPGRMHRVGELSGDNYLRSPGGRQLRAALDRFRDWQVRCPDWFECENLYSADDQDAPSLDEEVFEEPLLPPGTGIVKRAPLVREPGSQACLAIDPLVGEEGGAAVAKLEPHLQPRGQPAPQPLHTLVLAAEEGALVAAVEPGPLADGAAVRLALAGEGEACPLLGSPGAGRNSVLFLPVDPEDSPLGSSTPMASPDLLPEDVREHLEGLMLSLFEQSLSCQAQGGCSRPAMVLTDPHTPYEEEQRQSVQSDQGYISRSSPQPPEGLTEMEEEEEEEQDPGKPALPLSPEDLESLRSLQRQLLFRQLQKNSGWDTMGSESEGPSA
Type: binding

IL-17A
Effect on Orf8-IL17RA interaction (co-immunoprecipitation, in words): does not disrupt the interaction with Orf8
